The record followed here is publication PMC6052347, “Structure and Function of the Campylobacter jejuni Chromosome Replication Origin”.

The data set has as its target T1, 6HisCj1509 (Campylobacter jejuni 81116 (NCTC11828)?, UniProt Q0P820 1-295).
T1 sequence: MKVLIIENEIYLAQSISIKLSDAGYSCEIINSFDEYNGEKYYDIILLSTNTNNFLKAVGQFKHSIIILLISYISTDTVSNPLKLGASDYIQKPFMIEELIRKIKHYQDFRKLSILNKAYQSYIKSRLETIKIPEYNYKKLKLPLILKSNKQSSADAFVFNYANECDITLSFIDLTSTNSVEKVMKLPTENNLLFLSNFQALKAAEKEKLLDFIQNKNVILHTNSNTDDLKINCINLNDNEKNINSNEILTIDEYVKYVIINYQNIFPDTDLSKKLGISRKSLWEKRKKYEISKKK
The data set is described as follows: EMSA; higher affinity than boxes 1 and 3; EMSA: room temperature, 15 min, up to 30 nM DnaA or 400 nM Cj1509, 4% PAGE in 1x TBE; box probes 0.4 uM; binding buffer not given (as in Jaworski 2016); DnaA with 5 mM ATP (footprinting) or 3 mM ATP (EM). The following applies: protein: recombinant; tags: N-terminal 6xHis (pET28a); chain copies: 2; label: FAM 5' on E7; blunt; three strands, nick between E7 and E10, E11 complementary to E7+E10. For orientation: Mobility shift assays separate free from complexed probe on a gel.

B1: Cj1509 box 2 probe (E7-E10-E11) (dsDNA)
DNA 1: GTGCCCTGGTCTGG
DNA 2: TTTGAAGAATGTTACAATTTCAACA
DNA 3: TGTTGAAATTGTAACATTCTTCAAACCAGACCAGGGCAC
Consider B1, for which the binding result is listed as “binds”.
